Values quoted from earlier work as cited in paper PMC3308923.

Molecular target: HIV-1 capsid CA (Human immunodeficiency virus 1) (UniProt O93182)
Conditions: cited from earlier work

HIV-1 capsid CA (Human immunodeficiency virus 1), sequence (O93182 133-363): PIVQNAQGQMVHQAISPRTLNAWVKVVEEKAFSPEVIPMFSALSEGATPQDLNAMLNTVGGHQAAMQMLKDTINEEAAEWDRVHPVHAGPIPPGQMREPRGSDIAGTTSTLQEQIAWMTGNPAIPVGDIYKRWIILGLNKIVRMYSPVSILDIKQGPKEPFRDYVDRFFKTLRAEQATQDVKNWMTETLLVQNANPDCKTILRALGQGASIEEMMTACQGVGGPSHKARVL

## CAI peptide
  Kd: 15 µM
